Values quoted from earlier work in patent US20260263353A1, “PROGRAMMABLE DRUG-DEVICE MICRONEEDLE SYSTEM FOR THE DELIVERY AND MONITORING OF DIABETES AND OBESITY MEDICATIONS” (ALJ Creative Works, LLC, priority 2023, published 2026).

Conditions: once weekly dosing at clinically relevant doses; literature reference [26]

Substance: Insulin ICODEC
- half-life: about 196 hours
- safety and tolerability: safe and well-tolerated
